In PMC4656083 (Chemistry & biology, 2015):
Values belong to the molecule of their own block, whether it stands above or below them.

Experiments:
Assay in all cases: cross-linking
[1] = target: AcpP (acyl carrier protein) loaded with crosslinking probe DH8 (E. coli) (UniProt P0A6A8)
[2] = target: AcpP (acyl carrier protein) loaded with crosslinking probe DH10 (E. coli) (UniProt P0A6A8)
[3] = target: AcpP (acyl carrier protein) loaded with crosslinking probe DH6 (E. coli) (UniProt P0A6A8)
[4] = target: AcpP (acyl carrier protein) loaded with crosslinking probe DH10X (E. coli) (UniProt P0A6A8)
[5] = target: T1, FabA, β-hydroxyacyl-AcpP dehydratase (wild type) (E. coli, UniProt P0A6Q3 2-172)
T1 sequence: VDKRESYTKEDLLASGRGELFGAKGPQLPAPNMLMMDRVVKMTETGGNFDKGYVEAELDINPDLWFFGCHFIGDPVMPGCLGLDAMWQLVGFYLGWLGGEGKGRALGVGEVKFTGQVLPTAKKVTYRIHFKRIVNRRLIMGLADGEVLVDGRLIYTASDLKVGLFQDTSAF

crosslinking efficiency relative to WT FabA [1]: > 50% | crosslinking efficiency relative to WT FabA [2]: > 50% | crosslinking efficiency relative to WT FabA [3]: > 50% | crosslinking efficiency relative to WT FabA [4]: > 50%
Molecule: FabA F92A (enzyme)

crosslinking efficiency relative to FabA WT [2]: 50% | crosslinking efficiency relative to FabA WT [4]: 50%
Molecule: FabA F165A (enzyme)

crosslinking efficiency relative to FabA WT [2]: 50% | crosslinking efficiency relative to FabA WT [4]: 50%
Molecule: FabA F171A (enzyme)

crosslinking efficiency relative to WT FabA [1]: > 50% | crosslinking efficiency relative to WT FabA [2]: > 50% | crosslinking efficiency relative to WT FabA [3]: > 50% | crosslinking efficiency relative to WT FabA [4]: > 50%
Molecule: FabA L94A (enzyme)

crosslinking efficiency relative to WT FabA [1]: > 50% | crosslinking efficiency relative to WT FabA [2]: > 50% | crosslinking efficiency relative to WT FabA [3]: > 50% | crosslinking efficiency relative to WT FabA [4]: > 50%
Molecule: FabA L164A (enzyme)

percent complex formation (crosslinking) [1]: < 50% | percent complex formation (crosslinking) [2]: < 50% | percent complex formation (crosslinking) [3]: < 50% | percent complex formation (crosslinking) [4]: < 50%
Molecule: FabA R137E (enzyme)

binding result [5]: binds
B1: AcpP (acyl carrier protein) loaded with crosslinking probe DH10 (natural protein, E. coli)
chain: STIEERVKKIIGEQLGVKQEEVTNNASFVEDLGADSLDTVELVMALEEEFDTEIPDEEAEKITTVQAAIDYINGHQA
modifications: S36 carries the phosphopantetheine analogue of probe DH10 (sulfonyl-3-alkyne warhead, mimics a C10 acyl chain)
